In patent publication US20240294646A1:

Key:
[1] = target: Soluble FcγRIIaR extracellular domain with C-terminal 10×His tag (UniProt P12318); assay: SPR (Protocol 2): one-armed antibody captured on immobilised HER2, soluble receptor as analyte; fold over wild-type
[2] = target: Soluble FcγRIIb extracellular domain with C-terminal 10×His tag (UniProt P31994); assay: as above
[3] = target: Soluble FcγRIIb extracellular domain with C-terminal 10×His tag (UniProt P31994); assay: SPR (Protocol 2); ratio of FcγRIIb fold to FcγRIIaR fold over wild-type
C1q (human) = C1q (human) (UniProt P02745); assay: cell-based or functional assay
Sequence of C1q (human) (P02745 23-245 limits assumed, chain 1 of 3): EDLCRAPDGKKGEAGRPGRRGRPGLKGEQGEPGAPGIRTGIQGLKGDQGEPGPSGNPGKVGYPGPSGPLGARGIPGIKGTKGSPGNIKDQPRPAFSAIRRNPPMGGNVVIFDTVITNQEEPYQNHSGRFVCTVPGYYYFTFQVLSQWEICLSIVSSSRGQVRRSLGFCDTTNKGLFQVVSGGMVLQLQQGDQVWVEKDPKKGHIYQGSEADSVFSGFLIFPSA
Sequence of C1q (human) (P02746 28-253 limits assumed, chain 2 of 3, further chain): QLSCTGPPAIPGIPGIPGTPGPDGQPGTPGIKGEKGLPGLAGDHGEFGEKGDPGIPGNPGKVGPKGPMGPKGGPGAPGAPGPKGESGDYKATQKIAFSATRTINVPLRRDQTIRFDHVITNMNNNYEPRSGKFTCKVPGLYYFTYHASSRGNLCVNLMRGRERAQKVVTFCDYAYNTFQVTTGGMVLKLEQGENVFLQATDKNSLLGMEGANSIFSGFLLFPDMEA
Sequence of C1q (human) (P02747 29-245 limits assumed, chain 3 of 3, further chain): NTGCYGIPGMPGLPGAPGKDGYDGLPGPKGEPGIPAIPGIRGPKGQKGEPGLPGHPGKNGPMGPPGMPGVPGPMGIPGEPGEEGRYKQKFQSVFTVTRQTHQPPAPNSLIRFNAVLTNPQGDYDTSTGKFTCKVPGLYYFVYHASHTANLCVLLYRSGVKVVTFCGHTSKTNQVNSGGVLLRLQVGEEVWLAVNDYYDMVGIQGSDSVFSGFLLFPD

Sequence of Soluble FcγRIIb extracellular domain with C-terminal 10×His tag (P31994 other isoform, or with tags, fused parts or gaps): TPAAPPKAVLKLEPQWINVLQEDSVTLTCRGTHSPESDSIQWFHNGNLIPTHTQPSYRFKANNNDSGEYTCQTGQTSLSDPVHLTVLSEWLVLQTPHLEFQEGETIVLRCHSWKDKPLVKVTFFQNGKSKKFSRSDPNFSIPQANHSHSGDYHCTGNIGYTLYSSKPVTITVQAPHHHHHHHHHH
Sequence of Soluble FcγRIIaR extracellular domain with C-terminal 10×His tag (P12318 other isoform, or with tags, fused parts or gaps): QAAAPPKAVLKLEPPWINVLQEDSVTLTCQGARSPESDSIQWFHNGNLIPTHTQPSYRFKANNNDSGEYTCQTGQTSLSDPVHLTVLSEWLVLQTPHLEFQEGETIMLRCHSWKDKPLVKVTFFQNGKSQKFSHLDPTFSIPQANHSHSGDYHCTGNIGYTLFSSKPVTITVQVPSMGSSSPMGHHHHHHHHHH

IIaR-fold (fold change in affinity over wild-type) [1] | IIb-fold (fold change in affinity over wild-type) [2] | IIb/IIaR Selectivity (IIb-Fold/IIaR-Fold) [3] | CDC assay on Ramos cells: Lysis (%) Mean, at highest test antibody concentration (C1q (human)) | CDC assay on Ramos cells: Normalized Potency Mean (C1q (human)) | CDC assay on Ramos cells: Potency (ng/mL) Mean, antibody concentration above which >20% cell lysis was achieved (C1q (human)) | Substance
4.1 fold | 49.5 fold | 12 | – | – | – | Variant 19585, Lead 2 (one-armed trastuzumab antibody, heterodimeric IgG1 Fc; A: L234F_G236N_H268Q_K274Q_A327G_A330K_P331S / B: L234F_G236D_S239D_V266L_S267A_H268D_K274Q_A327G_A330S_P331S)
– | – | – | 5.13% | – | – | anti-CD40 full-size antibody (Chi Lob 7/4 Fab) with Fc negative variant (L234A, L235A, D265S)
0.8 fold | 6.2 fold | 7.9 | – | – | – | Variant 22119 (one-armed trastuzumab antibody, heterodimeric IgG1 Fc; A: L234F_G236N_H268Q_K274Q_A327G_A330K_P331S / B: L234F_G236D_S239D_V266L_S267I_H268D_K274Q_A327G_A330S_P331S)
9.7 fold | 85.8 fold | 8.8 | – | – | – | Variant 22120 (one-armed trastuzumab antibody, heterodimeric IgG1 Fc; A: L234F_G236N_H268Q_K274Q_A327G_A330K_P331S_K326D / B: L234F_G236D_S239D_V266L_S267A_H268D_K274Q_A327G_A330S_P331S_K326D)
2.3 fold | 28.7 fold | 12.7 | – | – | – | Variant 22117 (one-armed trastuzumab antibody, heterodimeric IgG1 Fc; A: L234D_G236N_H268Q_K274Q_A327G_A330K_P331S / B: L234F_G236D_S239D_V266L_S267A_H268D_K274Q_A327G_A330S_P331S)
2.6 fold | 31.9 fold | 12.1 | – | – | – | Variant 22116 (one-armed trastuzumab antibody, heterodimeric IgG1 Fc; A: L234D_G236N_S267A_K326D / B: G236D_S239D_V266L_S267A_H268D_K326D)
– | – | – | 78.2% | 93.6 % of WT | 166 ng/mL | anti-CD40 full-size antibody (Chi Lob 7/4 Fab) with control Fc SELF (S267E_L328F)
– | – | – | 7.28% | – | – | anti-CD40 full-size antibody (Chi Lob 7/4 Fab) with control Fc v12 (symmetrical E233D_G237D_P238D_H268D_P271G_A330R)
0.4 fold | 2.6 fold | 5.9 | – | – | – | Variant 22115 (one-armed trastuzumab antibody, heterodimeric IgG1 Fc; A: L234D_G236N_S267A_H268Q_K274Q_A327G_A330K_P331S / B: G236D_S239D_V266L_S267I_H268D_L234F_K274Q_A327G_A330K_P331S)
– | – | – | 77.8% | – | 67.7 ng/mL | anti-CD40 full-size antibody (Chi Lob 7/4 Fab) with wild-type CH2, v21653
1.8 fold | 25.4 fold | 14 | – | – | – | Variant 19540, Lead 3 (one-armed trastuzumab antibody, heterodimeric IgG1 Fc; A: L234D_G236N_S267A / B: G236D_S239D_V266L_S267A_H268D)
4.3 fold | 45.1 fold | 10.4 | – | – | – | Variant 22131 (one-armed trastuzumab antibody, heterodimeric IgG1 Fc; A: L234F_G236N_S267A / B: G236D_S239D_V266L_S267A_H268D)
